Numbering of substitutions follows the chain as printed.
T1: hOX40-EC-His (human, UniProt P43489 29-214)
T1 construct: extracellular domain; bought protein; also called recombinant human OX40 antigen protein; human OX40 extracellular segment antigen; not shown: 6 His label
T1 sequence (looked up): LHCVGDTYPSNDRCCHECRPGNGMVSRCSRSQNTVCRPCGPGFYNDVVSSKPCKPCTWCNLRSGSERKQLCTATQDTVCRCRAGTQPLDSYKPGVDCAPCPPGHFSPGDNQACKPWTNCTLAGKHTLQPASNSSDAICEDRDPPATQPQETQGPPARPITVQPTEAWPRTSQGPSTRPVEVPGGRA

T2: OX40 on OX40 over-expressed cells (UniProt P43489 29-277)
T2 construct: whole, on cells; human implied; also called OX40 expressed on the surface of OX40 expressing cell
T2 sequence (looked up): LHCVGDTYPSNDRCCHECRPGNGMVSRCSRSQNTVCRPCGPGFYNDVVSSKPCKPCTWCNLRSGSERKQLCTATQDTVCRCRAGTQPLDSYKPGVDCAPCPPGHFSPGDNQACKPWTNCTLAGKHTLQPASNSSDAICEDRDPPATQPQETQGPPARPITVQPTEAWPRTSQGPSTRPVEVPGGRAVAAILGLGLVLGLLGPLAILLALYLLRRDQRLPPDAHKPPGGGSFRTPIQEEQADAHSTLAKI

B1: 14D3-7-3 (antibody, V domains shown)
VH: EVQLVESGGGLVKPGGSLRLSCAASGFTFSNAWMSWVRQAPGKGLEWVGRIKRKTDGGTTDYATPVKGRFTISRDASKNTLYLQMNSLKTEDTAVYYCTSAARRGYFDIWGRGTLVTVSS
VL: EIVLTQSPGTLSLSPGERATLSCRASQSVSSRYLAWYQQKPGQAPRLLIYGASNRATGMPDRFSGSGSGTDFTLTISRLEPEDFAMYYCQQYGSSPITFGQGTRLEIKR
notes: hybridoma antibody, tested as culture supernatant
B2: 1F10-12-3 (antibody, V domains shown)
VH: QVQLQESGPGLVKPSGTLSLTCAVSGGSISNSNWWNWVRQPPGRGLEWIGEIYHSGSTNYNPSLKSRVTISVDKSKNQFSLKLTSVTAADTAVYYCARYSTPFFDYWGQGNLVTVSS
VL: DIQMTQSPSSLSASVGDRVTITCRASQSISNYLNWYQQKQGKAPKLLIYGASSLQSGVPSRFSGSGSGTDFTLTINSLQPEDFATYCCQQSYNNPLTFGGGTKVEIKR
notes: as for B1
B3: 23C4-1-5 (antibody, V domains shown)
VH: QVQLQESGPGLVKPSGTLSLTCAVSGGSISSSNWWSWVRQPPGKGLEWIGEIYHSGSTTYNPSLKSRVTISVDKSKSQISLKLTSVTAADTAVYYCARGDVLLWFGGRGTLVTVSS
VL: B1 VL with T20S, R32N, A44T, N54I, M59I, T75I, M86V, G93S
notes: as for B1
B4: 35B8-6 (antibody, V domains shown)
VH: QITLKESGPTLVKPTQTLTLTCTFSGFSLSTSAVNVGWIRQPHGKALEWLALIFWNDDKRYSPSLKNRLTITKDTSKDQVVLTMSNMDPVDTATYYCAQYNWNSSFDYWGQGTLVTVSS
VL: DIQMTQSPSSLSASLGDRVTITCQASQDINTYLNWYQQKPGKAPKVLIYDASNLETGVPSRFSGSGSGTDFTFTISSLQPEDIATFYCQQYDNLITFGGGTKVEIKR
notes: as for B1
B5: 38D9-12 (antibody, V domains shown)
VH: QVQLQESGPGLVKPSGTLSLTCAVSGDSISSTNWWSWVRQPPGKGLEWIGEINHNGSTYYNPSLKSRVTISVDKSKNQFSLKLRSVTAADTAVYYCAREDYYYMDVWGKGTTVTVSS
VL: DIQMTQSPSSLSASVGDRVTITCRTSQGIWNDLGWYQQKPGKAPKRLIYAASSLQSGVPSRFSGSESGTEFTLTISSLQPEDFATYYCLQYNNYPLTFGGGTKVEIKR
notes: as for B1
B6: 23D1-8 (antibody, V domains shown)
VH: QVQLVQSGAEVKKPGASVKVSCKASGYTFTGYYIHWVRQAPGQGLEWMGRINPNSGGTDFAQKFQARVTMTRDTAINIVYMELSRLRSDDTAVYYCARVVVASYYFDNWGQGTLVTVSS
VL: not shown
notes: as for B1
B7: 30B1-3 (antibody, V domains shown)
VH: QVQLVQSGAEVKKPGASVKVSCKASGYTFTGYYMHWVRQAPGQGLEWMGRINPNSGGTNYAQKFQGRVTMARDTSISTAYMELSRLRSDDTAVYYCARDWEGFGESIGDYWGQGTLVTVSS
VL: EIVLTQSPGTLSLSPGERATFSCRASQSVSGSYLAWYQQKPGQAPRLLIHGASSRATGIPDRFSGSGSGTDFTLTISRLEPEDFAVYYCLQYGSSPLTFGGGTKVEIKR
notes: as for B1
B8: 55H6-6 (antibody, V domains shown)
VH: QVQLVQSGAEVKKPGASVKVSCKASGYTFTSYGISWVRQAPGQGLEWMGWISAYNGHTNYAQKLQGRVTMTTDTSTNTAYMELWSLRSDDTAVYYCTSDYGDYWGQGTLVTVSS
VL: DVVVTQSPLSLPVTLGQPASISCRSSQSLVYSDGNTNLYWFQQRPGQSPRRLIYQVSNRDSGVPDRFSGSGSGTDFTLKISRVEAEDVGVYYCMQGTHWPPALTFGGGTEVEIKR
notes: as for B1
B9: 24B9-10 (antibody, V domains shown)
VH: QVQLQESGPGLVKPSGTLSLTCAVSGGSISSSNWWTWVRQPPGKGLEWIGEIYHSGSTNYNPSLKSRVTISVDKSKNQFSLKLSSVTAADTAVYYCARTGPIVTTEYWGQGTLVTVSS
VL: B7 VL with F21L, G31S, S32G, H50Y, S54I, V86L, L90Q
notes: as for B1
B10: 20G6-7-1 (antibody, V domains shown)
VH: QVQLQESGPGLVKPSGTLSLTCAVSGGSISSSNWWSWVRQPPGKGLEWIGEIYHSGNTNYNPSLKSRVTISVDKSKNQFSLKLSSVTAADTAVYYCARGGTTFDYWGQGTLVTVSS
VL: B1 VL with T5M, S7Y, P15S, T57S, D71E, R78S, L105V
notes: as for B1
B11: 16E4-10-5 (antibody, V domains shown)
VH: B3 VH with A23D, T59N, S77N, I79V, T84N, V101I, R108Q
VL: B1 VL with M86V
notes: as for B1

Biological target: T1, hOX40-EC-His
Test: ELISA, supernatant 1:100, coated hOX40-EC-His

Row | Binder | IgG ELISA (1:100) [OD650]
1 | B1 | 2.2
2 | B2 | 2.3
3 | B3 | 2.4
4 | B4 | 2.1
5 | B5 | 2.4
6 | B6 | 2.4
7 | B7 | 2
8 | B8 | 0.1
9 | B9 | 0.2

Biological target: T2, OX40 on OX40 over-expressed cells
Test: flow cytometry, supernatant on OX40 over-expressed cells
Experimental: After collecting OX40 over-expressed cells by 200G centrifugation, wash them with PBS containing 3% FCS, and then resuspend them in 2.5 ml of PBS containing 3% FCS. […] Finally, the cells were resuspended in […] of PBS containing 3% FCS for detection by flow cytometry.

Row | Binder | Y586 channel PE fluorescence value
10 | B1 | 274000
11 | B2 | 170000
12 | B10 | 352000
13 | B3 | 63900
14 | B4 | 243000
15 | B5 | 243000
16 | B6 | 166000
17 | B7 | 208000
18 | B8 | 479000
19 | B9 | 313000
20 | B11 | 377000

Biological target: T1, hOX40-EC-His
Test: ELISA, supernatant diluted 100 times, coated OX40 (CK60)

Row | Binder | 450 nm light absorption [OD450]
21 | B4 | 0.215
22 | B5 | 2.1
23 | B6 | 2.02
24 | B7 | 1.89
25 | B8 | 1.9
26 | B9 | 0.574

Biological target: T1, hOX40-EC-His
Test: ELISA, supernatant diluted 50 times, coated OX40 (CK60)

Row | Binder | 450 nm light absorption [OD450]
27 | B1 | 2.01
28 | B2 | 2.17
29 | B10 | 2.21
30 | B3 | 2.63
31 | B11 | 2.53

Biological target: T1, hOX40-EC-His
Test: ELISA, supernatant stoste, coated OX40 (CK60)

Row | Binder | 450 nm light absorption [OD450]
32 | B4 | 1.47
33 | B5 | 2.24
34 | B6 | 2.48
35 | B7 | 2.31
36 | B8 | 2.43
37 | B9 | 2.19
